B1: ZC3H15 (parent)
chain: ENLFTGEDLDELEEELNTLDLEE

Variants of: B1
Experiment: protein stability index of a GFP-peptide fusion (GPS, HEK-293T) (PSI 1-6); higher = more stable
Details: c terminus: native
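Also: lentivirally expressed fusions sorted by FACS into six bins by GFP to DsRed ratio, PSI derived from sequencing read proportions per bin multiplied by bin number.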

**Q.** Which protein stability index does the source give for ENLFTGEDLDELEEELNTLDSEE [L21S] here?
**A.** 2.58

**Q.** For ENLFTGEDLDELEEELNTLDHEE [L21H], which protein stability index is on record?
**A.** 3.31

**Q.** For ENLFTGEDLDELEEELNTLDIEE [L21I], which protein stability index is on record?
**A.** 2.25

**Q.** Which protein stability index does the source give for ENLFTGEDLDELEEELNTLDNEE [L21N] here?
**A.** 1.1

**Q.** With ENLFTGEDLDELEEELNTLDYEE [L21Y] as the variant, how does the protein stability index read?
**A.** 3.62

**Q.** For ENLFTGEDLDELEEELNTLDFEE [L21F], which protein stability index is on record?
**A.** 3.33

**Q.** For ENLFTGEDLDELEEELNTLDAEE [L21A], which protein stability index is on record?
**A.** 2.44

**Q.** With ENLFTGEDLDELEEELNTLDKEE [L21K] as the variant, how does the protein stability index read?
**A.** 2.71

**Q.** Which protein stability index does the source give for ENLFTGEDLDELEEELNTLDQEE [L21Q] here?
**A.** 4.88

**Q.** Which protein stability index does the source give for ENLFTGEDLDELEEELNTLDREE [L21R] here?
**A.** 3.48

**Q.** For ENLFTGEDLDELEEELNTLDTEE [L21T], which protein stability index is on record?
**A.** 2.68

**Q.** For ENLFTGEDLDELEEELNTLDGEE [L21G], which protein stability index is on record?
**A.** 4.82

**Q.** Which protein stability index does the source give for ENLFTGEDLDELEEELNTLDVEE [L21V] here?
**A.** 2.59

**Q.** With ENLFTGEDLDELEEELNTLDDEE [L21D] as the variant, how does the protein stability index read?
**A.** 4.99

**Q.** For ENLFTGEDLDELEEELNTLDCEE [L21C], which protein stability index is on record?
**A.** 2.13

**Q.** With ENLFTGEDLDELEEELNTLDEEE [L21E] as the variant, how does the protein stability index read?
**A.** 4.73

**Q.** With ENLFTGEDLDELEEELNTLDLEP [E23P] as the variant, how does the protein stability index read?
**A.** 5.67

**Q.** With ENLFTGEDLDELEEELNTLDLEL [E23L] as the variant, how does the protein stability index read?
**A.** 5.73

**Q.** For ENLFTGEDLDELEEELNTLDLED [E23D], which protein stability index is on record?
**A.** 5.47

**Q.** For ENLFTGEDLDELEEELNTLDLEW [E23W], which protein stability index is on record?
**A.** 5.54

**Q.** Which protein stability index does the source give for ENLFTGEDLDELEEELNTLDLEA [E23A] here?
**A.** 5.96

**Q.** With ENLFTGEDLDELEEELNTLDLEG [E23G] as the variant, how does the protein stability index read?
**A.** 5.05

**Q.** With ENLFTGEDLDELEEELNTLDLEM [E23M] as the variant, how does the protein stability index read?
**A.** 4.61

**Q.** With ENLFTGEDLDELEEELNTLDLEQ [E23Q] as the variant, how does the protein stability index read?
**A.** 4.97

**Q.** Which protein stability index does the source give for ENLFTGEDLDELEEELNTLDLEK [E23K] here?
**A.** 5.61

**Q.** With ENLFTGEDLDELEEELNTLDLEY [E23Y] as the variant, how does the protein stability index read?
**A.** 5.58

**Q.** Which protein stability index does the source give for ENLFTGEDLDELEEELNTLDLES [E23S] here?
**A.** 5.89

**Q.** With ENLFTGEDLDELEEELNTLDLEH [E23H] as the variant, how does the protein stability index read?
**A.** 5.42

**Q.** For ENLFTGEDLDELEEELNTLDLEN [E23N], which protein stability index is on record?
**A.** 5.51

**Q.** For ENLFTGEDLDELEEELNTLDLEV [E23V], which protein stability index is on record?
**A.** 5.29

**Q.** For ENLFTGEDLDELEEELNTLDLEF [E23F], which protein stability index is on record?
**A.** 5.07

**Q.** Which protein stability index does the source give for ENLFTGEDLDELEEELNTLDLEI [E23I] here?
**A.** 5.81

**Q.** For ENLFTGEDLDELEEELNTLDLER [E23R], which protein stability index is on record?
**A.** 3.26

**Q.** For ENLFTGEDLDELEEEQNTLDLEE [L16Q], which protein stability index is on record?
**A.** 2.69

**Q.** For ENLFTGEDLDELEEERNTLDLEE [L16R], which protein stability index is on record?
**A.** 3.77

**Q.** For ENLFTGEDLDELEEESNTLDLEE [L16S], which protein stability index is on record?
**A.** 3.82

**Q.** With ENLFTGEDLDELEEETNTLDLEE [L16T] as the variant, how does the protein stability index read?
**A.** 4.77

**Q.** With ENLFTGEDLDELEEENNTLDLEE [L16N] as the variant, how does the protein stability index read?
**A.** 4.12

**Q.** For ENLFTGEDLDELEEEVNTLDLEE [L16V], which protein stability index is on record?
**A.** 4.22

**Q.** For ENLFTGEDLDELEEEMNTLDLEE [L16M], which protein stability index is on record?
**A.** 4.78

**Q.** Which protein stability index does the source give for ENLFTGEDLDELEEEGNTLDLEE [L16G] here?
**A.** 4.11

**Q.** For ENLFTGEDLDELEEEFNTLDLEE [L16F], which protein stability index is on record?
**A.** 4.87

**Q.** Which protein stability index does the source give for ENLFTGEDLDELEEEKNTLDLEE [L16K] here?
**A.** 3.62

**Q.** For ENLFTGEDLDELEEEENTLDLEE [L16E], which protein stability index is on record?
**A.** 3.7

**Q.** With ENLFTGEDLDELEEEPNTLDLEE [L16P] as the variant, how does the protein stability index read?
**A.** 3.32

**Q.** Which protein stability index does the source give for ENLFTGEDLDELEEEANTLDLEE [L16A] here?
**A.** 3.48

**Q.** Which protein stability index does the source give for ENLFTGEDLDELEEEHNTLDLEE [L16H] here?
**A.** 4.2

**Q.** Which protein stability index does the source give for ENLFTGEDLDELEEEWNTLDLEE [L16W] here?
**A.** 2.9

**Q.** Which protein stability index does the source give for ENLFTGEDLDELEEELNTLSLEE [D20S] here?
**A.** 5.25

**Q.** With ENLFTGEDLDELEEELNTLYLEE [D20Y] as the variant, how does the protein stability index read?
**A.** 5.22

**Q.** With ENLFTGEDLDELEEELNTLHLEE [D20H] as the variant, how does the protein stability index read?
**A.** 4.87

**Q.** For ENLFTGEDLDELEEELNTLCLEE [D20C], which protein stability index is on record?
**A.** 5.38

**Q.** Which protein stability index does the source give for ENLFTGEDLDELEEELNTLWLEE [D20W] here?
**A.** 4.2

**Q.** For ENLFTGEDLDELEEELNTLTLEE [D20T], which protein stability index is on record?
**A.** 5.39

**Q.** With ENLFTGEDLDELEEELNTLVLEE [D20V] as the variant, how does the protein stability index read?
**A.** 4.99

**Q.** Which protein stability index does the source give for ENLFTGEDLDELEEELNTLGLEE [D20G] here?
**A.** 5.35

**Q.** Which protein stability index does the source give for ENLFTGEDLDELEEELNTLNLEE [D20N] here?
**A.** 4.67

**Q.** Which protein stability index does the source give for ENLFTGEDLDELEEELNTLRLEE [D20R] here?
**A.** 5.48

**Q.** With ENLFTGEDLDELEEELNTLELEE [D20E] as the variant, how does the protein stability index read?
**A.** 4.52

**Q.** Which protein stability index does the source give for ENLFTGEDLDELEEELNTLALEE [D20A] here?
**A.** 4.55

**Q.** Which protein stability index does the source give for ENLFTGEDLDELEEELNTLKLEE [D20K] here?
**A.** 5.11

**Q.** For ENLFTGEDLDELEEELNTLMLEE [D20M], which protein stability index is on record?
**A.** 3.71

**Q.** For ENLFTGEDLDELEEELNTLFLEE [D20F], which protein stability index is on record?
**A.** 4.85

**Q.** Which protein stability index does the source give for ENLFTGEDLDELEEELNTLPLEE [D20P] here?
**A.** 3.12

**Q.** For ENLFTGEDLDELEERLNTLDLEE [E15R], which protein stability index is on record?
**A.** 5.29

**Q.** Which protein stability index does the source give for ENLFTGEDLDELEELLNTLDLEE [E15L] here?
**A.** 3.29

**Q.** With ENLFTGEDLDELEEQLNTLDLEE [E15Q] as the variant, how does the protein stability index read?
**A.** 4.93

**Q.** With ENLFTGEDLDELEESLNTLDLEE [E15S] as the variant, how does the protein stability index read?
**A.** 5.18

**Q.** For ENLFTGEDLDELEETLNTLDLEE [E15T], which protein stability index is on record?
**A.** 5.01

**Q.** For ENLFTGEDLDELEENLNTLDLEE [E15N], which protein stability index is on record?
**A.** 4.61

**Q.** For ENLFTGEDLDELEEKLNTLDLEE [E15K], which protein stability index is on record?
**A.** 5.54

**Q.** For ENLFTGEDLDELEEYLNTLDLEE [E15Y], which protein stability index is on record?
**A.** 3.4

**Q.** For ENLFTGEDLDELEEWLNTLDLEE [E15W], which protein stability index is on record?
**A.** 4.08

**Q.** With ENLFTGEDLDELEEPLNTLDLEE [E15P] as the variant, how does the protein stability index read?
**A.** 3.14

**Q.** For ENLFTGEDLDELEEVLNTLDLEE [E15V], which protein stability index is on record?
**A.** 3.09

**Q.** For ENLFTGEDLDELEEMLNTLDLEE [E15M], which protein stability index is on record?
**A.** 3.88

**Q.** For ENLFTGEDLDELEEELNCLDLEE [T18C], which protein stability index is on record?
**A.** 4.8

**Q.** With ENLFTGEDLDELEEELNALDLEE [T18A] as the variant, how does the protein stability index read?
**A.** 4.22

**Q.** With ENLFTGEDLDELEEELNDLDLEE [T18D] as the variant, how does the protein stability index read?
**A.** 4.24

**Q.** For ENLFTGEDLDELEEELNKLDLEE [T18K], which protein stability index is on record?
**A.** 5.53

**Q.** Which protein stability index does the source give for ENLFTGEDLDELEEELNSLDLEE [T18S] here?
**A.** 5.05

**Q.** With ENLFTGEDLDELEEELNQLDLEE [T18Q] as the variant, how does the protein stability index read?
**A.** 5.2

**Q.** With ENLFTGEDLDELEEELNPLDLEE [T18P] as the variant, how does the protein stability index read?
**A.** 2.54

**Q.** With ENLFTGEDLDELEEELNVLDLEE [T18V] as the variant, how does the protein stability index read?
**A.** 3.58

**Q.** Which protein stability index does the source give for ENLFTGEDLDELEEELNLLDLEE [T18L] here?
**A.** 4.96

**Q.** Which protein stability index does the source give for ENLFTGEDLDELEEELNNLDLEE [T18N] here?
**A.** 5.31

**Q.** With ENLFTGEDLDELEEELNRLDLEE [T18R] as the variant, how does the protein stability index read?
**A.** 4.26

**Q.** Which protein stability index does the source give for ENLFTGEDLDELEEELNHLDLEE [T18H] here?
**A.** 4.81

**Q.** With ENLFTGEDLDELEEELNWLDLEE [T18W] as the variant, how does the protein stability index read?
**A.** 3.31

**Q.** With ENLFTGEDLDELEEELNTLDLWE [E22W] as the variant, how does the protein stability index read?
**A.** 5.39

**Q.** With ENLFTGEDLDELEEELNTLDLDE [E22D] as the variant, how does the protein stability index read?
**A.** 5.75

**Q.** With ENLFTGEDLDELEEELNTLDLIE [E22I] as the variant, how does the protein stability index read?
**A.** 5.44

**Q.** For ENLFTGEDLDELEEELNTLDLKE [E22K], which protein stability index is on record?
**A.** 5.67

**Q.** For ENLFTGEDLDELEEELNTLDLTE [E22T], which protein stability index is on record?
**A.** 5.41

**Q.** For ENLFTGEDLDELEEELNTLDLFE [E22F], which protein stability index is on record?
**A.** 5.82

**Q.** With ENLFTGEDLDELEEELNTLDLME [E22M] as the variant, how does the protein stability index read?
**A.** 5.37
